Reference: publication PMC9336126 (Communications Biology, 2022)

Legend:
[1] = target: T1, SARS-CoV-2 spike receptor-binding domain (RBD), residues 333-529 (SARS-CoV-2 ancestral (Wuhan-Hu-1, …, UniProt P0DTC2)); experiment: crystal structure; conditions: both partners purified
T1 construct: also called SARS-CoV-2 RBD; wildtype RBD

[2] = target: T2, SARS-CoV-2 WT RBD (Acro Biosystems, Cat #SPD-C52H3) (SARS-CoV-2 ancestral wildtype, UniProt P0DTC2); experiment: ELISA; conditions: both partners purified
T2 construct: also called wildtype RBD; ancestral wildtype SARS-CoV-2 RBD; source: bought: Acro Biosystems

B1: ADI-62113 Fab (Fab, V domains shown)
VH: QVQLQQSGAEVKKPGASVKLSCKASGYTFSVFPIHWVRQAPGQRLEWMGWHNAGDGDTKYSQKFQGRVTIISDTSASTAYMELSSLKSEDTAVYYCARAARPYYDRRGYFFRADYFQHWGQGTLVTVSS
VL: DIQVTQSPSSLSASVGDRVTITCQASQDIKNSLNWYQQKPGKAPKLLISDASNLETGVPSRFSGNGSGTDFTFTISSLQPEDIATYYCQQYDNLITFGPGTKVEIK
Question: Does B1 bind [1]?
Answer: binds

B2: ADI-62113 IgG (antibody, V domains shown)
VH: B1 VH
VL: B1 VL
Question: Does B2 bind [2]?
Answer: binds
